Experimental findings from patent publication US20260137759A1 are described below.

Test [1] concerns the target IL2Rβ and common γ chain (on 32Dβ cells). The test is described as follows: cell-based or functional assay.
The target of another test is TGFβ1 (R&D systems) (UniProt P01137). The experiment in a line: cell-based or functional assay.
Chain of UniProt P01137 (P01137 279-390 limits assumed): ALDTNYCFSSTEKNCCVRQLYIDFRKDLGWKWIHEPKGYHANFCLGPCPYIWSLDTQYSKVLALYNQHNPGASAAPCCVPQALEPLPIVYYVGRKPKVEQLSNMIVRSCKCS

In test [1], “recombinant IL-15 (from UniProt P40933 49-162) (ligand)” yielded an EC50, 32Dβ cell proliferation (WST1, absorbance 450 nM) of 0.0106 nM.

Consider “TGFR-Fc (R&D Systems) (from UniProt P37173 24-159) (Fc fusion)”, for which the IC50, inhibition of TGFβ1 activity in HEK-Blue TGFβ cells (QUANTI-Blue OD 620-655 nM) with TGFβ1 (R&D systems) worked out at 0.461 nM.
